The values below come from the DeepSol protein solubility set.

A short description of this series: soluble on expression in E. coli; label from the status in PepcDB or PDB records.
As for “MLMDGHTHTELCPHGSGEATEKMIQRAIQLGFQRYCITEHAPLPPAFRDQYEGTPAGYTEASLRENQVADYLALANGLKTKYAGQIEISVGFEVDFLPEHVAWTRDFLNTYGPRTQESILSVHFMRGLRQHFWCVDMSTDDFAAGFGQWLKTPQRVFEQYYQTVLASVQADLGPYAPQRIGHMSLVRKYQDYFGLTEPLDVHNLQLVDQTLALVKQQRRQLDLNLAGLYKPYCNDFYPGEQILQRAQKLDIPLVYGSDAHDIASVGRGYHLIKKLIEGLEHHHHHH”, the “soluble on expression in E. coli” value is given as “not soluble”.

In the case of “LDRQTERLQQGEVDVRFNMVSRMLDHPDLAERWPHLQGKLDNLSQEYELIRFWIDSDDPRYHYGRFSEPVQRLIADGAGRYELELPEHRYALTARVGVLPAREGRPRLTYVTAIDSAAFHEARTSTLKW”, the “soluble on expression in E. coli” value is recorded as “not soluble”.

On to “MSLTSEIIDVHMHCFVGRQQETALARDIALLRREGLRRMVVAGLVNTHPDPETTWNLIPDYVENHGDPHFNEADDLLALAESVDHALLPFVDTRYLRGDVATALDGYMGQGFKGVKGIYLPDNENDLGVGNVPDTLGISLEQYRRREWDLFAYAENHDLPLLYHMDARRYGDVMKDLLDDFPRVRVNFPHLGIGRKAFSAFLDRYPNIFTDIAGLLPYMRSNPASYRDFIMHYPDRICFGTDTFLYQAGSALDYISMVRELRLPEEIEAQVFNGNPTRFLGCVLYGAEGHHHHHH”, for which the “soluble on expression in E. coli” value was “not soluble”.

For the sequence “SCREKTELTPDQQTLLHFIMDSYNKQRMPQEITNKILKEEFSAEENFLILTEMATNHVQVLVEFTKKLPGFQTLDHEDQIALLKGSAVEAMFLRSAEIFNKKLPSGHSDLLEERIRNSGISDEYITPMFSFYKSIGELKMTQEEYALLTAIVILSPDRQYIKDREAVEKLQEPLLDVLQKLCKIHQPENPQHFACLLGRLTELRTFNHHHAEMLMSWRVNDHKFTPLLCEIWDVQ”, the “soluble on expression in E. coli” value is given as “soluble”.

Take “MKFTIVIPIFNRVQYIPETLDSVIRQTYTDLEIICVDDCSSDRSPVLLQDYAKTDLRIKVLTHAKNKGLYLARKTGVLNASGDYILFLDCDDVLDLHAVEVIYNALCKNSVEVLEYGYHSIHANENTVPDSAITVDKLFSSLVYDRYPRAGTVWNKAYKTELLKNAFSKMSDFHAVMGEDFYESVIIAYYAKSYSSIDDVLVIYNDESGISNTRKNLASIQKDLDSVVAILNGFRFFFESYASEHKEAVLNIESYYIRYVYYNLILLKTNKTDRKMAVDLLKDYFSAEAAAPYFNKTKPAVTRDAVMYKIRAVIKRYISKKLREMIKKIIRRYDKKPQQK”: the “soluble on expression in E. coli” value was “not soluble”.

“MGKRKTKEDNASEDYDANELMIVPGEKRKKLEKSGEKSATGGKKNRNFAKEKEVAKLTKQAKRKLAAVQSRKALKQTQEELFAGLAEFQLDPSKLCQLSSSTKLSKEPEKAPVFPEKLKVFSGKTKTEAKRTQQDYYPTDDESSSEEEEEEEEGDNDIEDAGNTVEVKIEPIDLDDVDEAIDGNPETNLDQIVVKREDDEESDNEDILALPTTTVINRKKVIVERSKEIQKSRAELPIFAEEMRIVEAINENLVTVVCGETGSGKTTQIPQFLYEAGYASEGELIGITEPRRVAAIAMAQRVGVELAKPDEVSYQIRYEGTRSETTNILFMTDGVLMKEMEQDVMLKKYSVILIDEAHERSMYSDVLIGMLSRIVPLRSKTARPLRLVIMSATLRLDDFTHKKLFPLLTPKVIKVDARQFPVSVHFEKRTPDDYIASAFRKTCRIHETLPPGAILVFVTGQHEVKQLITKLKKRYPVVYETDKNGEVLVKGTKEWKEKKVEAAKSIKLEDFKEETPETEDFEDVDDGLMDGDDMNERGAAEAFDDYEEFENGDGDLSDGKVENSIGAPPADCEPLYCLPLYSLLSMGKQRRVFDETPAGMRLCVISTNVAETSLTIPGVKYVIDGGFEKRRLYDSITGVSRFAVCRISQASGDQRAGRAGRISAGHAYRLYSSAVYQDFVKFADPEILSKPADQLVLHLKSMNIVKVVNFPFPSAPDEQMLESAEKRLCRLGALSESTKNGKTEARITKLGKTLAVFPLAPSYAKFIAMADQHNLMSHAILLISLLSVREPLIPVSSLRGDTPEETKELMKNVLKERRRWCSHTGARRLGDLKVLMHAASVAEQIKYNARECEKVGLRVKALVEARKLRQQLTNIVNASCKKEHAAALDSDLPPPTDQQAQLLRQMVVASFSDRLARRVDRSVGQEEVQKGAYETTLIKGHVFIDPCSVVFTEEPEFVIYQELVQVNEKKLMTSVCAVDKEWLSRLAESYCNYGEQDKNQEPIYDPVKDMVVKTVKVTFGPLNWELPNENRSVPHDIMMYRYFALFLLDGLVFEKLKEYTPKLLAPPSTMVKSWAKLQKRTEMLLNKLIEKEVTTRSSLKEQWLKNENWLLEEYLEWVPESVHQQISLMWPPLEDHEKTIKMGRNKKY”: the “soluble on expression in E. coli” value was “not soluble”.
